Results: patent US20240067738A1 (ELANCO US, published 2024)
Numbering of substitutions follows the chain as printed. Each block holds one binder with its values, some of them ahead of it.

Legend:
[1] = target: T1, canine IL4R (Examples 16, 18 and 19; construct not stated) (canine, biotinylated; sites not stated); assay: method not stated
T1 construct: also called Biotinylated canine IL4R; canine IL4R extracellular domains
T1 chain: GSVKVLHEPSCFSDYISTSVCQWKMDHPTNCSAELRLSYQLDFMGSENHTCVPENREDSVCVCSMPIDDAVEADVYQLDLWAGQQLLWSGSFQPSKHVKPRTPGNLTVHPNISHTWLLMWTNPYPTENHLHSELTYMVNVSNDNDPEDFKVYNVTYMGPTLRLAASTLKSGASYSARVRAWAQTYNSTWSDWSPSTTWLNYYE

[2] = target: T2, Canine IL4R-ECD_C-HuFc_His6 (processed) (canine); assay: BLI (Octet), IL4R-ECD_C-HuFc_His6 on anti-human Fc tips
T2 construct: Whole construct (ECD, linker, human Fc, His6) is one entry
Method: An alternative binding assay was performed also using an Octet Biosensor. Canine IL4R-ECD_C-HuFc_His6 (SEQ ID NO: 109) was captured on anti-human Fc-bound sensor tips. The association of either Clone B or I antibody and canine IL4R-ECD_C-HuFc_His6 was monitored for 600 seconds. Dissociation was monitored for 600 seconds. The buffer for dilutions and all binding steps was 20 mM phosphate, 150 mM NaCl, pH 7.2. […] In addition, amine conjugation may affect the affinity of canine IL4R-ECD_C-His6 to interact with Clone B and I antibodies.

[3] = target: T3, Canine IL4R-ECD_C-His6 (processed) (canine, biotinylated through amine chemistry; sites not stated); assay: BLI (Octet), biotinylated IL4R-ECD_C-His6 on streptavidin tips, 1:1 fit
T3 construct: Whole construct (ECD, linker, His6) is one entry; Captured biotinylated on streptavidin tips or wells
T3 chain: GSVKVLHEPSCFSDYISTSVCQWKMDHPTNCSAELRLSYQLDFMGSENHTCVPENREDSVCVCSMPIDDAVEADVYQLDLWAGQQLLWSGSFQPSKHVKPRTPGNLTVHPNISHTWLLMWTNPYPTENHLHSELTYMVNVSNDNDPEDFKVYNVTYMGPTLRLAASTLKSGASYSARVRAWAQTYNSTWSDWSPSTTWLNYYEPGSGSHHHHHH
Method: The binding analysis was performed using an Octet Biosensor as follows. Briefly, canine IL4R-ECD_C-His6 (SEQ ID NO: 107) was biotinylated through amine chemistry. The free unreacted biotin was removed by extensive dialysis. Biotinylated canine IL4R-ECD_C-His6 was captured on streptavidin sensor tips. The association of either Clone B or I antibody and canine IL4R-ECD_C-His6 (25 μg/mL) was monitored for 600 seconds. Dissociation was monitored for 600 seconds. A buffer only blank curve was subtracted to correct for any drift. The data were fit to a 1:1 binding model using ForteBio™ data analysis software to determine the kₒₙ, koff, and the Kd. The buffer for dilutions and all binding steps was 20 mM phosphate, 150 mM NaCl, pH 7.2.

[4] = target: Equine IL4R-ECD_C-HuFc_His6 (processed) (equine); assay: Western blot, non-reducing
[5] = target: T4, Canine/Human IL4R-ECD_C-HuFc_His6 Hybrid 13 (canine/human hybrid); assay: Western blot, non-reducing
T4 construct: Canine G1-S89 and P110-P204; human G90-H109

[6] = target: Murine IL4R-ECD_C-HuFc_His6 (processed) (murine); assay: Western blot, non-reducing
[7] = target: T5, Canine/Human IL4R-ECD_C-HuFc_His6 Hybrid 1 (canine/human hybrid); assay: Western blot, non-reducing
T5 construct: Canine G1-N55, human N56-H209, human Fc-His6; Tested as 3-fold concentrated 293 supernatant

[8] = target: Human IL4R-ECD_C-HuFc_His6 (processed) (human); assay: Western blot, non-reducing
[9] = target: T6, Canine/Human IL4R-ECD_C-HuFc_His6 Hybrid 6 (canine/human hybrid); assay: Western blot, non-reducing
T6 construct: Canine G1-N55 and P110-P204; human N56-H109

[10] = target: Feline IL4R-ECD_C-HuFc_His6 (processed) (feline); assay: BLI (Octet), biotinylated feline IL4R-ECD_C-HuFc_His6 on streptavidin tips, antibody 25 µg/mL, 1:1 fit
Method: This finding was consistent with in vitro binding affinity measured by Octet Biosensor. Biotinylated feline IL4R-ECD_C-HuFc_His6 (SEQ ID NO: 111) was captured on streptavidin sensor tips. The association of Clone I antibody (25 μg/mL) and feline IL4R-ECD_C-HuFc_His6 was monitored for 600 seconds. Dissociation was monitored for 600 seconds. A buffer only blank curve was subtracted to correct for any drift. The data were fit to a 1:1 binding model using ForteBio™ data analysis software to determine the kₒₙ, koff, and the Kd. The buffer for dilutions and all binding steps was 20 mM phosphate, 150 mM NaCl, pH 7.2.

[11] = target: T1, canine IL4R (Examples 16, 18 and 19; …); assay: BLI (ForteBio OctetRed), biotinylated canine IL4R on streptavidin tip
[12] = target: T2, Canine IL4R-ECD_C-HuFc_His6 (processed); assay: Western blot
[13] = target: Human IL4R-ECD_C-HuFc_His6 (processed) (human); assay: Western blot
[14] = target: T1, canine IL4R (Examples 16, 18 and 19; …); assay: BLI (ForteBio OctetRed)

Sequence of Human IL4R-ECD_C-HuFc_His6 (processed) (human) (chain, as listed by the source limits assumed): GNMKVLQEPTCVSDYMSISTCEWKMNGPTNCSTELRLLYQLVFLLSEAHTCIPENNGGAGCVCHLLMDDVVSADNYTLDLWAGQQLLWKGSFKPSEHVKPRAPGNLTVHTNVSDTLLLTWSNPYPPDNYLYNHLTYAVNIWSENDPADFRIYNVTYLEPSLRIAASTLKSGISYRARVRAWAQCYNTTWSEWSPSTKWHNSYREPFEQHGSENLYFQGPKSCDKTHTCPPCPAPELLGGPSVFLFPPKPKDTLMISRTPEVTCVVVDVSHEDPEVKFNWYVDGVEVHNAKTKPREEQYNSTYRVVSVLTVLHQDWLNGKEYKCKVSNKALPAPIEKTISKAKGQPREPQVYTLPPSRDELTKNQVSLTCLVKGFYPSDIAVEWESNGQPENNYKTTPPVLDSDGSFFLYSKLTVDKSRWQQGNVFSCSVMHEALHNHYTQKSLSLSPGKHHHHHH
Sequence of Equine IL4R-ECD_C-HuFc_His6 (processed) (equine) (chain, as listed by the source limits assumed): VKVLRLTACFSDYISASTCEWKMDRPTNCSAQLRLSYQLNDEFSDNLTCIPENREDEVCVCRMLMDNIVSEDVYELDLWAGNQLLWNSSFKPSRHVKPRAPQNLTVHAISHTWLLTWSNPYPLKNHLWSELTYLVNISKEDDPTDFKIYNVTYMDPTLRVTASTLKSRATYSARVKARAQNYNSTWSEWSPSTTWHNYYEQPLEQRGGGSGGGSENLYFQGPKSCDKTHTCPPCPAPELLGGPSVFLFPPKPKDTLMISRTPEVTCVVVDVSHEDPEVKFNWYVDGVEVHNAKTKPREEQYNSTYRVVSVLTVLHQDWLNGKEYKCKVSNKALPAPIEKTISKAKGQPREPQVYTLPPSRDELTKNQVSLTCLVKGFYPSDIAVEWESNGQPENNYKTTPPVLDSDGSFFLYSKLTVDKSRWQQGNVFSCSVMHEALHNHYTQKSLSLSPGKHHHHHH
T6 sequence (chain, as listed by the source limits assumed): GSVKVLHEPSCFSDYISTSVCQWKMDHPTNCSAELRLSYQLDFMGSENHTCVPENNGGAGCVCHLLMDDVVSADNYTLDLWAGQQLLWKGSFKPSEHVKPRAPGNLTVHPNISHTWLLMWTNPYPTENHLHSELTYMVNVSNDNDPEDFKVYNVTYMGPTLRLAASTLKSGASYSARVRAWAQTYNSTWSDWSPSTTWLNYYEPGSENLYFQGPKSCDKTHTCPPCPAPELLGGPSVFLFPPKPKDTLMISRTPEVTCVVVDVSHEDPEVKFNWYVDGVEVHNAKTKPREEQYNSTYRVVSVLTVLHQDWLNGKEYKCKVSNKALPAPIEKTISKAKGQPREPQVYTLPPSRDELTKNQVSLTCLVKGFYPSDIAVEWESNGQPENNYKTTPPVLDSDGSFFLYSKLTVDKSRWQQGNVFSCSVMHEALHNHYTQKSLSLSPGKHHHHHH
T4 sequence (chain, as listed by the source limits assumed): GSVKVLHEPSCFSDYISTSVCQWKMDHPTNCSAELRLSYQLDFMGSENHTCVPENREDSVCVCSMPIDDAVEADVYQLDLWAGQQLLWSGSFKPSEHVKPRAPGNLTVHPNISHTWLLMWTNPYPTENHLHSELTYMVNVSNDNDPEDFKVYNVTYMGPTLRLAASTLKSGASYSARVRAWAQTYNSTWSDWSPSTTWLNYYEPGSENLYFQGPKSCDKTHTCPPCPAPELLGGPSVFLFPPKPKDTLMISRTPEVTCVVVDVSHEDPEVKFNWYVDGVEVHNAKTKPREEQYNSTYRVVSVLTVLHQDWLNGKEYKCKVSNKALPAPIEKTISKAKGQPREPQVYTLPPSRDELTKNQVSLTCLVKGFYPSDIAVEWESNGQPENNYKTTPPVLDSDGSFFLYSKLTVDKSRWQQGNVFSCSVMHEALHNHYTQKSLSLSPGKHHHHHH
T5 sequence (chain, as listed by the source limits assumed): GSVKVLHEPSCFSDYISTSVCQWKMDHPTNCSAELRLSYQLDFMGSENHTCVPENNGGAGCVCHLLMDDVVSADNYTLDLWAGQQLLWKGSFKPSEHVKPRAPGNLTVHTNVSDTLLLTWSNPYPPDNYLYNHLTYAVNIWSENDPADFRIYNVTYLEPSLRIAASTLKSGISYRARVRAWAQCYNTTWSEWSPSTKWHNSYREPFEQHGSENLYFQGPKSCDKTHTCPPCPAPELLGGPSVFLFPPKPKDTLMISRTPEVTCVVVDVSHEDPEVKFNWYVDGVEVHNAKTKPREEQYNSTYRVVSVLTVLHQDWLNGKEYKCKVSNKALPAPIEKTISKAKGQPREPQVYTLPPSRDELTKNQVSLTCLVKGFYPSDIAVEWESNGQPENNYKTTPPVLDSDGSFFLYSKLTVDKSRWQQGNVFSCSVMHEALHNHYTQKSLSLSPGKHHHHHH
Sequence of Feline IL4R-ECD_C-HuFc_His6 (processed) (feline) (chain, as listed by the source limits assumed): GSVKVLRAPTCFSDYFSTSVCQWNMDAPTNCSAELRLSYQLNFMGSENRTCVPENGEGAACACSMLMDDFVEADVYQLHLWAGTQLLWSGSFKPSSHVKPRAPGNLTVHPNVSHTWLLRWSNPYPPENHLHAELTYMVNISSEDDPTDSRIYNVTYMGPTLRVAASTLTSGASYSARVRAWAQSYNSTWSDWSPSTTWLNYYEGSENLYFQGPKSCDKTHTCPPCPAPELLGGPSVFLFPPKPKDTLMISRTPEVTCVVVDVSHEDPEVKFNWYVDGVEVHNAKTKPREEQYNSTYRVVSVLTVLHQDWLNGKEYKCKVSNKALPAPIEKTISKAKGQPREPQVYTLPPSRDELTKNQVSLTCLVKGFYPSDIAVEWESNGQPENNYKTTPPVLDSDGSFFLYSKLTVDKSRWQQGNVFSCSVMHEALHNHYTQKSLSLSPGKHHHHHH
Sequence of Murine IL4R-ECD_C-HuFc_His6 (processed) (murine) (chain, as listed by the source limits assumed): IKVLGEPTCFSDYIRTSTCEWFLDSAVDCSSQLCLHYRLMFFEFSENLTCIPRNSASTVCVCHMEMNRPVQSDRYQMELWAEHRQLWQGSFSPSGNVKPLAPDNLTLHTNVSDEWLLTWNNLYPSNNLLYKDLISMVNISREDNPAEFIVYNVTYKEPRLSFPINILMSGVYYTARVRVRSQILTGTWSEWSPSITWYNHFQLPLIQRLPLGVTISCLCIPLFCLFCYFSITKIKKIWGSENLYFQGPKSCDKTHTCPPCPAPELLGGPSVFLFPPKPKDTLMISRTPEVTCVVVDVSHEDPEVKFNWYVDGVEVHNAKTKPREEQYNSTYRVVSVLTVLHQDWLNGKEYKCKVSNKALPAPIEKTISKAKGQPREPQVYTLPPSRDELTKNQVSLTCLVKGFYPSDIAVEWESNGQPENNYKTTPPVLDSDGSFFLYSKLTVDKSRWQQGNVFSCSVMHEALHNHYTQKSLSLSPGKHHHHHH

B5: M8 mouse monoclonal antibody (antibody, V domains shown)
VH: QVQLQQSGPELVKPGALVKISCKASGYTFTSYDINWVKQRPGQGLEWIGWIYPGDGSTKYNEKFKGKATLTADKSSSTAYMQLSSLTSEDSAVYFCARSSFVVWGAGTTVTVSS
VL: DIQMTQSSSYLSVSLGGRVTITCKASDPINNWLAWYQQKPGNAPRLLISGATSLETGVPSRISGSGSGKDYSLSITSLQTEDIATYYCHQYWSIPYTFGGGTKLEIK
notes: Mouse antibody purified from hybridoma culture; also called Clone M8
Kd [11]: < 10 nM | binding result [12]: binds | binding result [13]: no binding

B6: murine-canine chimeric M8 antibody (canine IgG-B, canine kappa) (antibody, V domains shown)
VH: B5 VH
VL: B5 VL
notes: also called chimeric canine IgG-B (M8)
Kd [14]: < 10 nM

B7: M3 mouse monoclonal antibody (antibody, V domains shown)
VH: QVQLKESGPGLVAPSQSLSITCTVSGFSLSRYSVHWVRQPPGKGLEWLGMIWGGGSTDYNSVFKSRLSISKDNSKSQVFLKMNSLQTDDTAMYYCARTYRGYALDYWGQGTSVTVSS
VL: DIQMTQTTSSLSASLGDRVTISCRASQDISNYLNWYQQKPDGTVKLLIYYTSRLQSGVPSRFSGSGSGTDYCLTISNLEQEDIATYFCQQANTLPLTFGSGTKLELK
notes: Mouse antibody purified from hybridoma culture; also called Clone M3
Kd [11]: < 10 nM | binding result [12]: binds | binding result [13]: no binding

B8: murine-canine chimeric M5 antibody (canine IgG-B, canine kappa) (antibody, V domains shown)
VH: B7 VH
VL: B7 VL
notes: also called chimeric canine IgG-B (M5)
Kd [14]: < 10 nM

B9: murine-canine chimeric M3 antibody (canine IgG-B, canine kappa) (antibody, V domains shown)
VH: B7 VH
VL: B7 VL
notes: also called chimeric canine IgG-B (M3)
Kd [14]: < 10 nM

B11: caninized M9 antibody, variable HC v1 with variant canine IgG-B (C1q-, CD16-) and variable LC v1 with canine kappa (antibody, V domains shown)
VH: EVQLVESGGDLVKPGGSLRLSCAASGFTFSSFGMHWVRQAPGKGLEWVAYIRSDSSTIYYADAVKGRFTISRDNAKNTLYLQMNSLRAEDTAMYYCARSGYYGSFSLTYWGQGTLVTVSS
VL: DIMLTQTPLSLSVSPGEPASISCSASSSVSSNYLHWYLQKAGQSPRLLIYRTSNLPSGVPDRFSGSGSGTDFTLRIGRVEAEDAGIYYCQQGSGMLTFGQGTRLEVRR
notes: also called caninized M9 HC v1 / LC v1
Kd [1]: ≤ 1 nM

B13: M9 mouse monoclonal antibody (antibody, V domains shown)
VH: DVQLVESGGGLVQPGGSRKLSCAASGFTFSSFGMHWVRQAPEKGLEWVAYIRSDSSTIYYADTVKGRFTISRDNPKNTLFLQMTSLRSEDTAMYYCARSGYYGSFSLTYWGQGTLVTVSA
VL: EIVLTQSPTTMAASPGEKITITCSASSSVSSNYLHWYQQKPGFSPKLLIYRTSNLPSGVPARFFGSGSGTSYSLTIGTMEAEDVATYYCQQGSGMLTFGAGTKLELK
notes: Mouse antibody purified from hybridoma culture; also called Clone M9
Kd [11]: < 10 nM | binding result [12]: binds | binding result [13]: no binding

Further lines, with some results ahead:

Kd [1]: ≤ 1 nM
B1: caninized M3 antibody, variable HC v1 with variant canine IgG-B (C1q-, CD16-) and variable LC v1 with canine kappa (antibody, V domains shown)
VH: EVQLVESGGDLVKPAGSLRLSCTVSGFSLSRYSVHWVRQAPGKGLEWLGMIWGGGSTDYNSVVKGRFTISRDNAKNTVYLQMNSLRAEDTAMYYCARTYRGYALDYWGQGTLVTVSS
VL: DIVMTQTPLSLSVSPGEPASISCRASQDISNYLNWYLQKAGQSPRLLIYYTSRLQSGVPDRFSGSGSGTDFTLRIGRVEAEDAGIYFCQQANTLPLTFGQGTRLEVRR
notes: also called caninized M3 HC v1 / LC v1

Kd [1]: ≤ 1 nM
B2: caninized M3 antibody, variable HC v2 with variant canine IgG-B (C1q-, CD16-) and variable LC v1 with canine kappa (antibody, V domains shown)
VH: ELTLQESGPGLVKPSQTLSLTCTVSGFSLSRYSVHWIRQPRGRGLELLGMIWGGGSTDYNPAFQGRISITADTAKNQFSLQLSSMTTEDTAVYYCARTYRGYALDYWGQGTLVTVSS
VL: B1 VL
notes: also called caninized M3 HC v2 / LC v1

Kd [2]: ~0.1 nM | Kd [3]: 2.03 nM
B3: Clone B mouse monoclonal antibody (antibody, mouse IgG1, kappa, V domains shown)
VH: EVKLEESGPELVKPGASVKMSCKASGYTFTSYVMHWVKQKPGQGLEWIGYINPKNDGTFYNGKFKGKATLTSDKSSSTAYMELSSLTSEDSAVYYCAAFNYGIAYWGQGTLVTVSS
VL: IVLTQTPSSLSASLGERVSLTCRASQEISGYLSWLQQKPDGTIKRLIYAASTLDSGVPKRFSGSRSGSDFSLTISSLESEDFADYYCVQYASYPWTFGGGARLEIKR
notes: also called Clone B antibody; anti-IL4R-mAb Clone B

binding result [5]: binds | binding result [7]: binds | binding result [9]: binds | Kd [10]: 1.1 nM
B4: Clone I mouse monoclonal antibody (antibody, mouse IgG1, kappa, V domains shown)
VH: B3 VH with K3Q, E5Q, E6Q, K54N, N100Y, I103F, S116A
VL: DIVLTQSPSSLSASLGERVSLTCRASQEISGYLSWLQQKPDGTIKRLIYAASTLDSGVPKRFSGSRSGSDFSLTISSLESEDFADYYCLQYASYPWTFGGGAKLEIKR
notes: also called Clone I antibody; anti-IL4R-mAb Clone I
binding result [4]: no binding (tested: Clone I 0.3 µg/mL; 0.1 µg/lane) | binding result [6]: no binding (tested: Clone I 0.3 µg/mL; 0.1 µg/lane) | binding result [8]: no binding (tested: Clone I 0.3 µg/mL; 0.1 µg/lane)

Kd [11]: < 10 nM
B10: M5 mouse monoclonal antibody (antibody, V domains shown)
VH: B7 VH
VL: B7 VL
notes: Mouse antibody purified from hybridoma culture; also called Clone M5

Kd [1]: ≤ 1 nM
B12: caninized M9 antibody, variable HC v2 with variant canine IgG-B (C1q-, CD16-) and variable LC v1 with canine kappa (antibody, V domains shown)
VH: B11 VH with A23V, E46Q
VL: B11 VL
notes: also called caninized M9 HC v2 / LC v1

Kd [14]: < 10 nM
B14: murine-canine chimeric M9 antibody (canine IgG-B, canine kappa) (antibody, V domains shown)
VH: B13 VH
VL: B13 VL
notes: also called chimeric canine IgG-B (M9)
